Results as given in US20240261333A1 (published 2024).
Values belong to the binder of their own block, whether it stands above or below them.

What was measured:
Assay in all cases: co-IP with anti-FLAG, N-FLAG B3GNT2, mass spectrometry
RPS14 = RPS14 (human, UniProt P62263 2-151)
Protocol: (§1) Cells were plated in 10-cm cell culture dishes and grown to 60-80% confluency. For each condition, two biological replicates were harvested for co-IP. Cells were washed with PBS and 4 mL of lysis buffer (20 mM HEPES, 1% Triton X-100, 150 mM NaCl, 1 mM EDTA, and 10% glycerol) containing protease inhibitor cocktail was added. Cells were scraped and lysate was incubated at 4° C. under rotary agitation for 1 h. Lysate was centrifuged at 14,000×g for 10 min at 4° C. Supernatant was transferred to a new tube and an aliquot was taken as the input. […] For Western blots, 10 μg/mL Chicken Anti-FLAG (Aves labs ET-DY100) and IgY control (R&D Systems AB-101-C) antibodies were biotinylated (Thermo Fisher Scientific 90407) and added to the respective conditions. Lysates with antibodies were incubated at 4° C. under rotary agitation overnight. For each mL of lysate, 50 μL of Pierce Protein A/G Magnetic Beads (Mass spectrometry; Thermo Fisher Scientific 88803) or Pierce Streptavidin Magnetic Beads (Western blot; Thermo Fisher Scientific 88817) was washed twice with lysis buffer. Lysates with antibodies were added to the beads and incubated at 4° C. under rotary agitation for 4 h. Beads were washed with lysis buffer 3 times and resuspended in lysis buffer for storage.
(§2) Magnetic beads were resuspended in 100 mM Tris pH 7.8, reduced, alkylated and digested with trypsin at 37° ° C. overnight. This solution was subjected to solid phase extraction to concentrate the peptides and remove unwanted reagents followed by injection onto a Shimadzu HPLC with fraction collector. Eight fractions were collected and after concentration were injected on a Waters NanoAcquity HPLC equipped with a self-packed Aeris 3 μm C18 analytical column 0.075 mm by 20 cm, (Phenomenex). Peptides were eluted using standard reverse-phase gradients. The effluent from the column was analyzed using a Thermo Orbitrap Elite mass spectrometer (nanospray configuration) operated in a data dependent manner for 54 minutes. The resulting fragmentation spectra were correlated against the known database using Proteome Discover 1.4 (Thermo Fisher Scientific).

FLG = target: T1, FLG (human, UniProt P20930 1-4061, limits assumed)
T1 construct: also called NP_002007.1
T1 sequence (P20930 whole entry): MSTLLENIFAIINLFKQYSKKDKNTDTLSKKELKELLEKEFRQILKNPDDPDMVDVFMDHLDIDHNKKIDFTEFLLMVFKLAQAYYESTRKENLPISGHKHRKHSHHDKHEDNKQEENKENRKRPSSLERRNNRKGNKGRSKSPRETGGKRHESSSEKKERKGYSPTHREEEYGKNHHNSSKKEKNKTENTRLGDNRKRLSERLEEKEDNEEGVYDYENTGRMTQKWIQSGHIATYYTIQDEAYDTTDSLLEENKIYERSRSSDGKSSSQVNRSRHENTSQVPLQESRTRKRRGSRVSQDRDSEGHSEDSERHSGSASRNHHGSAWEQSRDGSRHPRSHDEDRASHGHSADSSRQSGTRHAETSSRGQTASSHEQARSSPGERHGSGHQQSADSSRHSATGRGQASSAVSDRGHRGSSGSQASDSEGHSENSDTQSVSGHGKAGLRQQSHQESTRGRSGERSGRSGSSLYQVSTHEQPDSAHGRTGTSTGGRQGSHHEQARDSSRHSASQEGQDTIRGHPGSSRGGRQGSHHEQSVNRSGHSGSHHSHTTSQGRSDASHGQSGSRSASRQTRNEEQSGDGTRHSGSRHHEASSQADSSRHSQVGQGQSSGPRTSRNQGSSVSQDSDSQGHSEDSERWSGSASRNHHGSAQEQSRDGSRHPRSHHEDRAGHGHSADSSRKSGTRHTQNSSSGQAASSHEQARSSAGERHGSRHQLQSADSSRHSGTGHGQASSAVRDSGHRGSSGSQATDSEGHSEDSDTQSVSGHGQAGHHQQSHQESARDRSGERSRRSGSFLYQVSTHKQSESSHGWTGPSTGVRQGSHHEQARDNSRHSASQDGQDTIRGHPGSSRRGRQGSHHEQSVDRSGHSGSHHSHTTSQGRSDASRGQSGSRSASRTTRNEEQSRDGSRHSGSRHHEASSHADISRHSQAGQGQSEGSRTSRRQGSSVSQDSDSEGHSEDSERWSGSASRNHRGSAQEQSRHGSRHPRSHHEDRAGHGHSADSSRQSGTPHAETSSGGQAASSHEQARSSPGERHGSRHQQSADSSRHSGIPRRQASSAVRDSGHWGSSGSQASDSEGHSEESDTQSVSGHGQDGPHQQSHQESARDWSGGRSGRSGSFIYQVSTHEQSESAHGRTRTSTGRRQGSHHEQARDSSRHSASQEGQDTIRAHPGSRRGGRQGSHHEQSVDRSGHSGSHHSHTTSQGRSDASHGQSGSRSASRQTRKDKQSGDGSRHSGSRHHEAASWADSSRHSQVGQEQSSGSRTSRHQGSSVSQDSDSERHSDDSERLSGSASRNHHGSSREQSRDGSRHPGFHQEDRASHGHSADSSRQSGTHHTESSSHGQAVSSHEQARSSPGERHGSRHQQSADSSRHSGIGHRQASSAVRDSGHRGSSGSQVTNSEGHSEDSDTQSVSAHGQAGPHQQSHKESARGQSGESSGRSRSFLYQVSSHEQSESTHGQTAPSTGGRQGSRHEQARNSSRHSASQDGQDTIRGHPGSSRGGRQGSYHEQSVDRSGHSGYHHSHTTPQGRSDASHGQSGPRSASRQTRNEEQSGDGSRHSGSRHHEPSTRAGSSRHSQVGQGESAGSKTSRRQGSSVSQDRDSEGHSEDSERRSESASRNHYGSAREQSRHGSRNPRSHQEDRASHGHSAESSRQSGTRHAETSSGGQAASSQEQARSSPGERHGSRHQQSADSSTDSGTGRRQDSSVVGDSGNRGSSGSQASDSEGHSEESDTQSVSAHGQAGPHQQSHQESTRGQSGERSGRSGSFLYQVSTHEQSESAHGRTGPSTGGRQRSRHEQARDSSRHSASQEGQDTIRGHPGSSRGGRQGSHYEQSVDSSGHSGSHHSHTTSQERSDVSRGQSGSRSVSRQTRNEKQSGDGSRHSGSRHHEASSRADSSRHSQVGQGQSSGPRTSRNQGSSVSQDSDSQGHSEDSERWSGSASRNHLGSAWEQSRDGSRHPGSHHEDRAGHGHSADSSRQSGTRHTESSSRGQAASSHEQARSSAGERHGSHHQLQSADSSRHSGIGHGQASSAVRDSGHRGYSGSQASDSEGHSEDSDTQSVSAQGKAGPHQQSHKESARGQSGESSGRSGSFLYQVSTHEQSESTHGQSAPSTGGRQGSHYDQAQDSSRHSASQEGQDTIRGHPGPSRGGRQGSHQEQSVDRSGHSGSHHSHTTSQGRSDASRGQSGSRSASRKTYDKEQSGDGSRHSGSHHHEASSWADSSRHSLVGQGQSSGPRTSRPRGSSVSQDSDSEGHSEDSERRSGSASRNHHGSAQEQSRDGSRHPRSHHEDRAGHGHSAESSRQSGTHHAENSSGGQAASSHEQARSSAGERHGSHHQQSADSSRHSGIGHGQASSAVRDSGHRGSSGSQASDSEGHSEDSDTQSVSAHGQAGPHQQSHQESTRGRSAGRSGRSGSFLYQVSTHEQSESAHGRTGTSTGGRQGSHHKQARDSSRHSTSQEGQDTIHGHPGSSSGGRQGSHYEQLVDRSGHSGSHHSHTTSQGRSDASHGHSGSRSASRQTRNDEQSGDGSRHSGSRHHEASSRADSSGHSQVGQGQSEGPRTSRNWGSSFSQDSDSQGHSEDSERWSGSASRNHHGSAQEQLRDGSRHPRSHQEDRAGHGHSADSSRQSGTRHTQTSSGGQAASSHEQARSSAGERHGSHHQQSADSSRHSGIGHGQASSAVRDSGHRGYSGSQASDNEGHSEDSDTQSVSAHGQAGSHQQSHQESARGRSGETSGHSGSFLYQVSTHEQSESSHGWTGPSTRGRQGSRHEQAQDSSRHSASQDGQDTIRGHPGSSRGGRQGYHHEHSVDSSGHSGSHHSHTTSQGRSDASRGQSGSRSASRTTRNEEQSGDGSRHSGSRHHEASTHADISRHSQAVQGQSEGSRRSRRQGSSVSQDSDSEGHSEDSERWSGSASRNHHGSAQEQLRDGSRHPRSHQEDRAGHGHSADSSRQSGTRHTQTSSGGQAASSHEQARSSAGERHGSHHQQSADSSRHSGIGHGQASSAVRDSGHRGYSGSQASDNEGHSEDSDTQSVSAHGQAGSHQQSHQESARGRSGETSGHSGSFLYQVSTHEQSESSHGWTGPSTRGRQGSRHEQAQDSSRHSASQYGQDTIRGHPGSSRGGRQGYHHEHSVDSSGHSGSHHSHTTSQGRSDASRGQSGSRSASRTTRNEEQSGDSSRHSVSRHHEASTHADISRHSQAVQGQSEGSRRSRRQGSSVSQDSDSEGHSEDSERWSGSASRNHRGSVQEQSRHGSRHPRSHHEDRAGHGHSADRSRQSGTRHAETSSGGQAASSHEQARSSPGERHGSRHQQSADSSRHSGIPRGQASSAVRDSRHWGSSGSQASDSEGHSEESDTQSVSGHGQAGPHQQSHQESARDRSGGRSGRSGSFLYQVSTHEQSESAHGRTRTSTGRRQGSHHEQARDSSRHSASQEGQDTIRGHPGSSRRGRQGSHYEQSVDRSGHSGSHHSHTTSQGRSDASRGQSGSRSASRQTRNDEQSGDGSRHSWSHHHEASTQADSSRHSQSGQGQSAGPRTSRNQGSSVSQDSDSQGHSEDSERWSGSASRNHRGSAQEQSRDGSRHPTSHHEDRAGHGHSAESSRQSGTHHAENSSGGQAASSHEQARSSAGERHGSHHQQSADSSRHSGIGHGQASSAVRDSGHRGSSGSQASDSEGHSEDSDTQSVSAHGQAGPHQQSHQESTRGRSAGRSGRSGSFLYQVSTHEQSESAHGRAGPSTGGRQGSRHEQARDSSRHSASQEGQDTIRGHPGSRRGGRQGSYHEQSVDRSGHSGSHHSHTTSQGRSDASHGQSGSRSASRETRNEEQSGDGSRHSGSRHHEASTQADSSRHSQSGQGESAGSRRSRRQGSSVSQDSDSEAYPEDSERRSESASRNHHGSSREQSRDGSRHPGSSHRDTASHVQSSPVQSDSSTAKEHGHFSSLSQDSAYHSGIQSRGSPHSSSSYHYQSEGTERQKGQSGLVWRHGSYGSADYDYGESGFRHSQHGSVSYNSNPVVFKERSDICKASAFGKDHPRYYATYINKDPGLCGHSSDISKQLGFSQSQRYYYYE
Protocol: as §1, §2

SYNCRIP = target: T2, SYNCRIP (human, UniProt O60506-3 2-562, limits assumed)
T2 construct: also called NP_001153148.1 (+1)
T2 sequence (looked up): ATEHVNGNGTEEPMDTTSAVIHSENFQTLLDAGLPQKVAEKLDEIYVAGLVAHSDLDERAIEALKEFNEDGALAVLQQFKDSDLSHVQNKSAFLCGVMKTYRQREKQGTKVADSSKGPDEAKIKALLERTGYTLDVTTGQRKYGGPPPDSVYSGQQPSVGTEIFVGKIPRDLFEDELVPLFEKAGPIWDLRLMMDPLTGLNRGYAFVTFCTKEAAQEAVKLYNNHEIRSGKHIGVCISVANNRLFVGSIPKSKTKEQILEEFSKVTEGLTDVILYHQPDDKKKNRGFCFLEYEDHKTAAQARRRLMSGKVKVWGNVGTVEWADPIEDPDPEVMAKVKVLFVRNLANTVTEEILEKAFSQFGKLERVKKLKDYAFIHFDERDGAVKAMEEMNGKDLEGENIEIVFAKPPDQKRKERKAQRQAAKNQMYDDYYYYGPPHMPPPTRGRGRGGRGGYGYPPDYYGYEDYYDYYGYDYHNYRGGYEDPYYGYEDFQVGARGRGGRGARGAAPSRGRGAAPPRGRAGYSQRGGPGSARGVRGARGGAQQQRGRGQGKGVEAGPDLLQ
Protocol: as §1, §2

YTHDF2 = target: T3, YTHDF2 (human, UniProt Q9Y5A9 2-579)
T3 construct: also called NP_057342.2
T3 sequence (looked up): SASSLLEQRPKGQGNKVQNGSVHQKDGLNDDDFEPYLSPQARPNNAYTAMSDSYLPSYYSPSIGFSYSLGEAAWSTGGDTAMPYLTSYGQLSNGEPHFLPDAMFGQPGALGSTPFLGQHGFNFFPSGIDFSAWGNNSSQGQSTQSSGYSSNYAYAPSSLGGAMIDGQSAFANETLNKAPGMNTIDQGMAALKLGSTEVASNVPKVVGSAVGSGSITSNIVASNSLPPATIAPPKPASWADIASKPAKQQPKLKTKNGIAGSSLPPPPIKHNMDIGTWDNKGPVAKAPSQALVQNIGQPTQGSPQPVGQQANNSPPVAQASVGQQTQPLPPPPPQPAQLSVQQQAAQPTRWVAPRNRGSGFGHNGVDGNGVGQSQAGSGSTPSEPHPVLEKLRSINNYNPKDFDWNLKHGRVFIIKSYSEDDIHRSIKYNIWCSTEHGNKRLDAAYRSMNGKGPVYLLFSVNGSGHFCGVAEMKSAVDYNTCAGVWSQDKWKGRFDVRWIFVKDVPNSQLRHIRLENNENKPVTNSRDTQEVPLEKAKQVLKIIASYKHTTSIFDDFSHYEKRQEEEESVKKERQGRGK
Protocol: as §1, §2

DHX9 = target: T4, DHX9 (human, UniProt Q08211 1-1270)
T4 construct: also called NP_001348.2
Protocol: as §1, §2

TM9SF1 = target: T5, TM9SF1 (human, UniProt O15321-2 28-489, limits assumed)
T5 construct: also called NP_001014842.1 (+1)
T5 sequence (O15321 other isoform, or with tags, fused parts or gaps limits assumed): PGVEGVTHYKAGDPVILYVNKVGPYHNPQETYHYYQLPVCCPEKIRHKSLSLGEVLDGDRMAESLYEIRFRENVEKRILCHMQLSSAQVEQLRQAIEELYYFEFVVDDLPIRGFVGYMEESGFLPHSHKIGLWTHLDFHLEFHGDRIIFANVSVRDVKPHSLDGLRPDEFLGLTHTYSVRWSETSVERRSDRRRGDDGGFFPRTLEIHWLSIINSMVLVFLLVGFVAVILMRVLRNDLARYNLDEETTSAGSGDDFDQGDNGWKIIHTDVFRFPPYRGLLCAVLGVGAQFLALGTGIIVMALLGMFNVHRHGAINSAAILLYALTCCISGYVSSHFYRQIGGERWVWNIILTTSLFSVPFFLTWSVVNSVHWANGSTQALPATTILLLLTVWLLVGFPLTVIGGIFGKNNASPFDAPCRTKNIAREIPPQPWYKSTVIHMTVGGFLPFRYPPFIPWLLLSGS
Protocol: as §1, §2

SPARC = target: T6, SPARC (human, UniProt P09486 18-303)
T6 construct: also called NP_001296372.1 (+1)
T6 sequence (looked up): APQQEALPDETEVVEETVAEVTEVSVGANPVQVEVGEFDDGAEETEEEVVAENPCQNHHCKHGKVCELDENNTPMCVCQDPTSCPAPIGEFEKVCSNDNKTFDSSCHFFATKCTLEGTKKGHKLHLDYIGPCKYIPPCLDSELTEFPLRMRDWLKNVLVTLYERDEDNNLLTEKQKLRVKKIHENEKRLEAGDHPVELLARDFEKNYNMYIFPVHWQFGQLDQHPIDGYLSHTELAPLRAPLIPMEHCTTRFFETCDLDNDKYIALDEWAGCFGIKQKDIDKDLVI
Protocol: as §1, §2

RPS24 = target: T7, RPS24 (human, UniProt P62847-4 1-289, limits assumed)
T7 construct: also called NP_001135757.1
T7 sequence (P62847 other isoform, or with tags, fused parts or gaps limits assumed): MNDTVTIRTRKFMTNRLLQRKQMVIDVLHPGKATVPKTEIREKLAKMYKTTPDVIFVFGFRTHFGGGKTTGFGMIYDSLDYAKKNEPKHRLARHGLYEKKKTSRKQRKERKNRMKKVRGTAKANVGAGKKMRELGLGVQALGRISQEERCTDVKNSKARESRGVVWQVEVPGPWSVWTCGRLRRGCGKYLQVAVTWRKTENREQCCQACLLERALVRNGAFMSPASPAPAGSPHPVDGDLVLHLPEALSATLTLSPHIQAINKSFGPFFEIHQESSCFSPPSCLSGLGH
Protocol: as §1, §2

ARPC1B = target: T8, ARPC1B (human, UniProt O15143 2-372)
T8 construct: also called NP_005711.1
Protocol: as §1, §2

co-IP mass spectrometry count (RPS14): 11
co-IP mass spectrometry count (FLG): 29
co-IP mass spectrometry count (SYNCRIP): 2
co-IP mass spectrometry count (YTHDF2): 5
co-IP mass spectrometry count (DHX9): 0
B1: N-terminal FLAG tagged B3GNT2 (enzyme, human, UniProt Q9NY97 1-397, looked up)
chain: MSVGRRRIKLLGILMMANVFIYFIMEVSKSSSQEKNGKGEVIIPKEKFWKISTPPEAYWNREQEKLNRQYNPILSMLTNQTGEAGRLSNISHLNYCEPDLRVTSVVTGFNNLPDRFKDFLLYLRCRNYSLLIDQPDKCAKKPFLLLAIKSLTPHFARRQAIRESWGQESNAGNQTVVRVFLLGQTPPEDNHPDLSDMLKFESEKHQDILMWNYRDTFFNLSLKEVLFLRWVSTSCPDTEFVFKGDDDVFVNTHHILNYLNSLSKTKAKDLFIGDVIHNAGPHRDKKLKYYIPEVVYSGLYPPYAGGGGFLYSGHLALRLYHITDQVHLYPIDDVYTGMCLQKLGLVPEKHKGFRTFDIEEKNKNNICSYVDLMLVHSRKPQEMIDIWSQLQSAHLKC
notes: FLAG-tagged ORF overexpressed in cells; pulled down from lysate with mouse anti-FLAG; also called N-FLAG B3GNT2; N-term FLAG; not shown: N-terminal FLAG tag

co-IP/MS count, N-term FLAG (TM9SF1): 0
co-IP/MS count, N-term FLAG (SPARC): 0
co-IP/MS count, N-term FLAG (RPS24): 0
co-IP/MS count, N-term FLAG (ARPC1B): 0
B2: N-terminal FLAG tagged B3GNT2 (enzyme, human, UniProt Q9NY97 1-397, looked up)
chain: B1 chain
notes: FLAG-tagged ORF overexpressed in A375 cells; pulled down from the lysate with mouse anti-FLAG; also called N-FLAG B3GNT2; N-term FLAG; not shown: N-terminal FLAG tag
